{"source": "patent US9657092B2", "about": "“S100A4 antibodies and therapeutic uses thereof” (LYKERA BIOMED SA, priority 2010, dated 2017)", "molecules": {"B1": {"name": "5C3: mouse monoclonal anti-S100A4 antibody, IgG1, from hybridoma ECACC 10022401; VL SEQ ID NO: 1, VH SEQ ID NO: 2 (antibody, V domains shown)", "VH": "EAQLQQSGAELVKPGASVKLSCTASGFNIQETYMHWVKQRPEQGLEWIGRIDPANGNTKDDPKFQGKASITVDTSSNTAYLQLSSLTSEDTAVYYCASSYAMDYWGQGTSVTVSS", "VL": "DVLMTQTPLSLPVSLGDQASISCRSSQSIVHSNGNTYLEWYLQKTGQSPELLIYKVSNRLSGVPDRFSGSGSGTDFTLKISRVEAEDLGVYYCFQGSHVPFTFGSGTKLEIK", "modifications": "VH region of the 5C3 monoclonal antibody; VL region of the 5C3 monoclonal antibody"}}, "key": {"[1]": {"system": "circulant S100A4 protein in plasma", "assay": "Plasma quantification of S100A4 by sandwich ELISA in xenograft tumor models", "assay_type": "in vivo, athymic mice", "details": "MiaPACA-2 and HCT116 xenograft tumor model, end of experiment", "description": "Plasma levels of S100A4 were quantified by sandwich ELISA method. […] After removing the coating, plates were washed twice with PBS and incubated 1 h at 37° C. in blocking buffer (PBS containing 1% of skimmed milk).\nPlasma samples diluted 1:4 in dilution buffer (PBS-4% BSA) were applied to the wells (100 μl/well) and were incubated 2 h at 37° C. Plates were washed eight times with washing buffer (PBS-0.1% of Tween-20) and Rabbit polyclonal anti-S100A4 secondary antibody (Dako) at the appropriate dilution was applied to the wells (100 μl/well) and were incubated for 1 h at 37° C.\nPlates were washed eight times with washing buffer and Goat anti-Rabbit-IgG-peroxidase conjugated (Sigma) at the appropriate dilution was added to each well (100 μl/well) and were incubated 1 h at 37° C. […] Absorbance was ridden at 450 nm.\nStandard curve for basal plasma samples (animals without tumor), was obtained by serial dilutions of murine recombinant S100A4 in dilution buffer. Standard curve for final plasma samples (animals with tumor at the end of the experiment) was obtained by serial dilutions of human recombinant S100A4 in dilution buffer."}, "[2]": {"target": "T1, Human S100P (Homo sapiens, UniProt P25815)", "T1 construct": "made in house", "T1 sequence (P25815 1-95)": "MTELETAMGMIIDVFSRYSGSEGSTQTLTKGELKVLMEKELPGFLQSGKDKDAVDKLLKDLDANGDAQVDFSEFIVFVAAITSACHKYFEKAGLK", "assay": "ELISA specificity (reaction pattern of mAb)", "assay_type": "binding", "design": "key: ++++ positive reaction; − no reaction"}, "[3]": {"system": "MMP9 proteolytic activity induced by S100A4", "assay": "Gelatin zymography of HUVECs conditioned media", "assay_type": "cell-based, human", "details": "1-2 μM antibody with S100A4 1 μM, 24 h", "description": "HUVECs were grown in EBM plus supplements (EGM) and 10% FCS, in 24-well culture plates. Before stimulation, cells were maintained 4 hours in EBM in the absence of serum or other supplements. Then, S100A4 (0.3-1-3 μM), in EBM were added to the culture to analyze their capacity to increase the secretion of active forms of matrix metalloproteinases (MMPs). […] After 24 hours at 37° C., supernatants were centrifuged to remove the debris. Then, 10 μL of Laemmli sample buffer without reducing agent (80 mM Tris-HCl pH 6.8, 4% SDS, 10% glycerol, 0.01% bromophenol blue) was added to 10 μl of each of the clear supernatants that were loaded without boiling in a 8% SDS-polyacrylamide gel copolymerized with Type A gelatine from porcine skin (Sigma) at a final concentration of 1 mg/mL. After electrophoresis, SDS was removed by washing the gel three times for 15 minutes with 2.5% Triton X-100 in H2O. […] Staining was performed for 1 hour at RT with 0.1% naphthol amido black (Sigma) in acetic acid, methanol and water at a proportion of 1:3:6 in volume. Then, gels were washed with destaining solution until clear bands were observed over a dark background. Bands were quantified using the NIH ImageJ imaging software."}}}
{"molecule": "B1", "values": [{"measurement": "S100A4 protein levels in plasma of treated animals (unbound to 5C3)", "setting": "[1]", "value": "blocks the totality of circulant S100A4 protein in plasma"}, {"measurement": "Reaction Pattern of mAb in ELISA, Human S100P", "setting": "[2]", "value": "−"}, {"measurement": "activity of MMP9 in the media", "setting": "[3]", "value": "completely reduced"}]}
